Broadly, the Km is the concentration of substrate that gives half-maximal velocity.

Substrate in the data set: Nc1ncnc2c1ncn2[C@@H]1O[C@H](COP(=O)(O)OP(=O)(O)OP(=O)(O)O)[C@@H](O)[C@H]1O
Briefly: Pi release, Lineweaver-Burk plot. In kind it is biochemical, Glycine max. The conditions noted are these: pH and temperature not stated for kinetics (substrate tests in 45 mM Na-acetate pH 5.0).

B1: GmPAP7a (Glycine max) (protein)
chain: MASSLNQRMLFPLMFVIGMFCLMVTPSIAELPIFKHPPKKQQSLNILVLGDWGRKGTYNQSLVANQMGIVGEKLDIDFVISTGDNFYEDGLKGVDDPAFYQSFVDMYTAPSLQKTWYTVLGNHDYRGDVGAQLSPILKQKDSRWLCMRSFILDGEIVEFFFVDTTPFVEEYFTDPGEHTYDWEGVLPRLAYLSELLKDVDLALAQSKAKWKMVVGHHTINSAGHHGNTEELKQLLVPILEANDVDAYINGHDHCLQHIIDNNSGIHFITSGGGSKAWSGDVKPWKLEELKLYYDGQGFMSMQITKSKADIIFYDAFGKVLHTWSISKDRNVAAWI
As for B1, the Km was determined as 110 µM.

B2: GmPAP7b (Glycine max) (protein)
chain: MASSLNQRMVFPVMVVVGMFCLLVTPSIAELPRFKHPPKKQQSLNILVLGDWGRKGTYNQSLVANQMGIVGEKLDIDFVISTGDNFYEDGLKGVDDPAFYQSFIHMYTAPSLQKTWYTVLGNHDYRGDVEAQLSPILKQKDSRWLCMRSFILDGEIVEFFFVDTTPFVEEYFTDPGEHTYDWEGVLPRLAYVSKLLKDVDSALAQSKAKWKMVVGHHTINSAGHHGSTEDLKQLLVPILEANNVDAYINGHDHCLQHIIDNNNGIHFITSGGGSKAWSGDVKPWKLEELKLYYDGQGFMSMQITKSTAYIIFYDAFGKVLHTWSISKDRNVAAWI
For B2, the Km turned out to be 66 µM.

The record behind these values is paper PMC7326820, “Characterization of Purple Acid Phosphatase Family and Functional Analysis of GmPAP7a/7b Involved in Extracellular ATP Utilization in Soybean” (Frontiers in Plant Science, 2020).
